Results from the RNAGym collection of RNA variant scans (doi:10.7554/elife.90254).

B1: OR4K15 (parent)
chain: GUUAACGGUCAUAGGCCAUGGAAACUAGGAGCACCAUUUCGCUGCCAGUGAAGAAAUGAACAAAGAAAAUCUGGGCCAGGCAGGCAUCAAAAGAAAUAGUCUUGCGCUCAACCAGAAAGUCUGUAAUCAUUUUAAGGGUA

Variants of: B1
Assay: self-cleavage, relative activity (ratio to wild type); higher = more cleavage; in vitro, sequencing; the parent is a self-cleaving ribozyme

| Variant | self-cleavage |
| --- | --- |
| A60G A135G | 1.71 |
| A60G U124C | 0.63 |
| A60U U102C | 2.8 |
| A62U U100C | 2.34 |
| A60U A89U | 1.68 |
| A60U A89G | 1.73 |
| A62G A68G | 1.12 |
| A62G U102A | 1.14 |
| A60G U103C | 0.78 |
| A60G U103G | 0.05 |
| A63C A126G | 0.99 |
| A63C A126U | 1.62 |
| A63G A126G | 1.13 |
| A63G A126U | 0.57 |
| A60U U87A | 1.61 |
| A60U U87C | 1.43 |
| A62U U139A | 1.78 |
| A62U U139C | 1.82 |
| A63G U130G | 1.92 |
| A63G U130C | 1.13 |
| A59U C109U | 0.43 |

| Variant | self-cleavage |
| --- | --- |
| A63U A82G | 0.36 |
| A60G G136C | 0.72 |
| A60G A129G | 0.49 |
| A59U U127C | 0.28 |
| A59U U127G | 1.12 |
| C61U U132C | 1.89 |
| A59U U130C | 1.05 |
| A60G U97C | 1.05 |
| A63G U102A | 1.39 |
| A63G U102G | 0.54 |
| A63G U102C | 1.43 |
| A63G A64G | 1.37 |
| A63G A64U | 1.62 |
| A59U A116U | 0.2 |
| A62G A90U | 0.76 |
| A62G A90G | 0.54 |
| A62U A89U | 1.93 |
| A62U A89G | 1.95 |
| A62G C112G | 0 |
| A62G U100A | 1.12 |
| A62G U100C | 2.17 |

| Variant | self-cleavage |
| --- | --- |
| A62G A95G | 2.2 |
| A63G G99A | 0.76 |
| A62G C105U | 0.14 |
| A63G A98U | 2.55 |
| A63G C85U | 1.21 |
| A63G U127G | 2.41 |
| A60U A118U | 0.99 |
| A62G A114G | 0.44 |
| A62U U103C | 1.23 |
| A62U U103G | 0.07 |
| A62U G104A | 0.04 |
| C61U C85U | 0.95 |
| A60G A125G | 0.69 |
| A62G U139C | 1.62 |
| A62G U139A | 1.84 |
| A60G U131C | 0.15 |
| A60C A82G | 0.28 |
| C61U A63G | 2.17 |
| A62G A78G | 0.27 |
| A60G C105U | 0.28 |
| A62G A135G | 2.19 |

| Variant | self-cleavage |
| --- | --- |
| A60G A96G | 1.47 |
| A60G A96U | 1.96 |
| A60G U132A | 1.17 |
| A63G A69G | 1.04 |
| A62U U97C | 0.96 |
| A60C A69G | 2 |
| A60C A63G | 2.15 |
| A63U U100C | 2.04 |
| A59U U102C | 1.23 |
| A60U G104A | 0.03 |
| A62C A96G | 2.59 |
| A63C G74U | 0.15 |
| A60G A110U | 1.3 |
| A60G A110G | 0.13 |
| A60U A134G | 1.84 |
| A62U U120C | 1 |
| A62U U120A | 2.24 |
| A62U U131C | 1.2 |
| A62G A118U | 0.73 |
| A62G A118G | 1.01 |
